Experimental data published in patent publication US12533403B2, “Peptide conjugated particles” (NORTHWESTERN UNIVERSITY, priority 2013, dated 2026).

Tested on: allergic airway inflammation (murine allergy model)
Experiment: Therapeutic treatment of OVA/Alum-induced allergic airway inflammation
Assay type: in vivo, mice
Conditions: treated after exposure to OVA
Method: To test the therapeutic effect of OVA encapsulated in PLG particles on airway inflammation, mice were treated intraperitoneally with OVA/Alum at a dose of 10 μg/mouse on day 0 and day 14. The mice were intravenously administered with OVA-PLG on days 28, and 42. Between days 56-58, the mice were treated three times with aerosolized OVA.
The animals were treated as described above except that on days 28 and 42, the mice were treated with either OVA encapsulated in PLG particles, or OVA coupled to PLG particles.
In the allergy model, coupled nanoparticles have a propensity to cause anaphylaxis and are not an effective therapy. […] Animals were exposed to OVA as an allergen, and were then treated with either a sham-PLG or TIMP particle, a PLG or TIMP particle with OVA, or no treatment.

B1: OVA-PLG surface coupled particles: PLGA particle with OVA coupled to the outside of the particle (conjugate, UniProt P01012 2-386, looked up)
Ovalbumin: GSIGAASMEFCFDVFKELKVHHANENIFYCPIAIMSALAMVYLGAKDSTRTQINKVVRFDKLPGFGDSIEAQCGTSVNVHSSLRDILNQITKPNDVYSFSLASRLYAEERYPILPEYLQCVKELYRGGLEPINFQTAADQARELINSWVESQTNGIIRNVLQPSSVDSQTAMVLVNAIVFKGLWEKAFKDEDTQAMPFRVTEQESKPVQMMYQIGLFRVASMASEKMKILELPFASGTMSMLVLLPDEVSGLEQLESIINFEKLTEWTSSNVMEERKIKVYLPRMKMEEKYNLTSVLMAMGITDVFSSSANLSGISSAESLKISQAVHAAHAEINEAGREVVGSAEAGVDAASVSEEFRADHPFLFCIKHIATNAVLFFGRCVSP
modifications: coupled to PLG particles
TH2 response: fail to reduce the TH2 response
